The source of these data is paper PMC4822050, “Hemi-methylated DNA opens a closed conformation of UHRF1 to facilitate its histone recognition” (Nature Communications, 2016).

One may read the Kd as a measure of binding affinity in units of concentration. Read a high Kd as lower affinity.

The test addresses T1, full-length UHRF1 (residues 1–793) (human, UniProt Q96T88 1-793).
T1 construct: human UHRF1, residues 1–793; monomer by gel filtration; also called wild-type UHRF1; ICBP90
T1 sequence (looked up): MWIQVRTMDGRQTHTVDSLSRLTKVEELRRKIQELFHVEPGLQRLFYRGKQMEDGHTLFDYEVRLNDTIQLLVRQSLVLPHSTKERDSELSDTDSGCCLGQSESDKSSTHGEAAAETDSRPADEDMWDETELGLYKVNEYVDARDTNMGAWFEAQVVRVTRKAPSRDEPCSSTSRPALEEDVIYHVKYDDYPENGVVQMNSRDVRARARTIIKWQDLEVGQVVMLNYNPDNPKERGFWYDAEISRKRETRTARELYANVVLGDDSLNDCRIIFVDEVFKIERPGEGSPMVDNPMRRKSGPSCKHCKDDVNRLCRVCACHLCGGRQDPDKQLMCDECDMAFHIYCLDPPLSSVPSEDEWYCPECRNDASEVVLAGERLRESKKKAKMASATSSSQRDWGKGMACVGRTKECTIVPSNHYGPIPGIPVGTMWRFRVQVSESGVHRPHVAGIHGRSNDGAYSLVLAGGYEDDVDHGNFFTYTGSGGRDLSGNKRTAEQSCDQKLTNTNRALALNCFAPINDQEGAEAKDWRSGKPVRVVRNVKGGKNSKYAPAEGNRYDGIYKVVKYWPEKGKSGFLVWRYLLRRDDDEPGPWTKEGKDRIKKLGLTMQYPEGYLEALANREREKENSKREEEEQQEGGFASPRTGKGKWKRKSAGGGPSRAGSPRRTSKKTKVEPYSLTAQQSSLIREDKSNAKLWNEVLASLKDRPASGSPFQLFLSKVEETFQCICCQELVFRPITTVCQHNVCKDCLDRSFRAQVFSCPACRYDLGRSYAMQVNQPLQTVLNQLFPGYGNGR
Put plainly: ITC; 0.05 mM protein in the cell, 0.5 mM protein or peptide in the syringe, iTC200, 18 °C, 10 mM HEPES pH 8.0, 100 mM NaCl. Particulars: both partners purified. For orientation: Isothermal titration calorimetry measures the heat released or taken up as one component is titrated into another.

B1: H3K9me3 peptide (1–17) (peptide, UniProt P68431 2-18, looked up)
peptide: ARTKQTARKSTGGKAPR
modifications: trimethyl-lysine at K9
notes: histone H3, residues 1–17
Take B1: binding was characterised by a dissociation constant (Kd) of 4.61 µM.
